From article doi:10.1101/2020.03.27.011510 (bioRxiv, 2020) come the findings set out here.

For one data set, the target named is BIR1 C12A/S87A/N28C-GdI (UniProt P98170). In words: DEER.
Data set [1] concerns the molecule itself. Kind of data set: DEER.
The data set “NMR titration” concerns the molecule itself. In words: NMR titration.
Data set [2] concerns the molecule itself. In words: DEER. This is another data set of the same source.

Changes are numbered by the printed parent chain. Names and notes keep the numbering of the source.

The term Kd denotes the equilibrium constant for the complex coming apart. Read a high Kd as a looser complex. In the data set with BIR1 C12A/S87A/N28C-GdI, “BIR1 C12A/S87A/N28C-GdI (from UniProt P98170 10-99) (domain or fragment)” returned a Kd of 97.5 µM.

B1: WT BIR1 C12-GdI (first baculoviral IAP repeat domain of XIAP, spin-labelled at C12 with BrPSPy-DO3A-Gd3+) (domain or fragment)
chain: KTCVPADINKEEEFVEEFNRLKTFANFPSGSPVSASTLARAGFLYTGEGDTVRCFSCHAAVDRWQYGDSAVGRHRKVSPNCRFINGFYLE
modifications: BrPSPy-DO3A-Gd3+ (GdI) spin label on C12 via a thioether bond
In the data set “DEER [1]”, B1 had a Kd of 126 ± 40 µM.

B2: BIR1 C12A/K19C-GdI (domain or fragment)
chain: B1 chain with C3A, K10C
modifications: BrPSPy-DO3A-Gd3+ (GdI) spin label on C19 (K19C) via a thioether bond
The molecule B2 registered a Kd in the data set “DEER [1]” of 126 ± 40 µM.

B3: BIR1 C12A/V24C-GdI (domain or fragment)
chain: B1 chain with C3A, V15C
modifications: BrPSPy-DO3A-Gd3+ (GdI) spin label on C24 (V24C) via a thioether bond
In turn, B3 showed a Kd in the data set “DEER [1]” of 126 ± 40 µM.

B4: BIR1 C12A/E22C-GdI (domain or fragment)
chain: B1 chain with C3A, E13C
modifications: BrPSPy-DO3A-Gd3+ (GdI) spin label on C22 (E22C) via a thioether bond
In the data set “DEER [1]”, B4 returned a Kd of 126 ± 40 µM.

B5: WT BIR1 (first baculoviral IAP repeat domain of XIAP), without spin label (domain or fragment)
chain: B1 chain
modifications: 15N isotope-labelled (NMR samples)
B5: in the data set “NMR titration”, the Kd worked out at 4.7 ± 2 µM.

B6: BIR1 C12A/N28C-GdI (domain or fragment)
chain: B1 chain with C3A, N19C
modifications: BrPSPy-DO3A-Gd3+ (GdI) spin label on C28 (N28C) via a thioether bond
In the case of B6, the Kd was found to be 11.3 ± 3.8 µM in the data set “DEER [2]” and 126 ± 40 µM in the data set “DEER [1]”.

B7: S87A BIR1 mutant, without spin label (domain or fragment)
chain: B1 chain with S78A
modifications: 15N isotope-labelled (NMR samples)
B7 had a Kd in the data set “NMR titration” of 20.3 ± 4.6 µM.
